# Data published in the RNAGym collection of RNA variant scans (doi:10.1073/pnas.2313332121).
# B1: TPR t1 (parent)
# chain: GACCAAUCUGCCCUCAGAGCUCGAGAACAUCUUCGGAUGCAGAGGAGGCAGGCUUCGGUGGCGCGAUAGCGCCAACGUCCUCAACCUCCAAUGCAUCCCACCACAUGAUGAUGCCUGAAGAGCCUUGGUUUUUUG
# Variants of: B1
# Test: polymerase ribozyme fitness, log enrichment relative to wild type (log ratio); higher = more active; in vitro selection for triplet polymerase activity
# How it was run: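 Both subunits of a heterodimeric triplet polymerase ribozyme were given their own mutant library, built by PCR and transcribed. Each library was annealed with a biotinylated primer, the partner subunit and triplets, incubated frozen at −7 °C, and its extended constructs gel-excised, captured on streptavidin beads and amplified by RT-PCR, all in one round done in triplicate. Fitness is the logarithm of genotype enrichment relative to wild-type enrichment, with replicates averaged by inverse-variance weighting. That logarithm is base 2, and Illumina-sequenced genotypes needed ≥10 input reads and ≥1 read per output.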
row,Variant,polymerase ribozyme fitness (log ratio)
1,GACCAAUCUGCCCUCAGAGCUCGAGAACAUCUUCGGAUGCAGAGGACGCAGUCUUCGGUGGCGCGAUAGCGCCGACGUCCUCAACCUCCAAUGCAACCCACCACAUGAUGAUGCCUGAAGAGCCUUGGUUUUUUG,-4.89
2,GACCAAUCUGCCCUCAGAGCUCGAGAACAUCUUCGGAUGCAGAGGACGCAGGCUUCGGUGGCGCGAUAGCCCCAACGUCCUCAACCUCCAAUGCAUCCCACCACAUGAUGAUGCCUUAAGAGCCUUGGUUUUUUG,-4.58
3,GACCAAUCUGCCCUCAGAGCUCGAGAACAUCUUCGGAUGCAGAGGACGCAGGCUUCGGUGGCGCGUUAGCGCCAACGUCCUCAACCUCCAAUGCAUCCCACCACAUGAUGAUGCCUGAUGUGCCUUGGUUUUUUG,-0.0171
4,GACCAAUCUGCCCUCAGAGCUCGAGAACAUCUUCGGAUGCAGAGGACGCAGGCUUCGGUGGCGCGAUAGCUCCAACGUCCUCAACCUCCAAUGCAUCCCACCACAUGAUGAUGCCUGAAGAGCCUUGGUUUUUUG,-1.65
5,GACCAAUCUGCCCUCAGAGCUCGAGAACAUCUUCGGAUGCAGAGGACGCAGGCUUUGGUGGCGCGAUAGCGCCAACGUCCUCAACCUCCAAUGCAUCCCACCACAUGAUGAUGCCUGAAGAGCCUUGGUUUUUUG,-1.01
6,GACCAAUCUGCCCUCAGAGCUCGAGAACAUCUUCGGAUGCAGAGGACGCAGGCUUCGGUGGCGCGAUAGCGCCAACGUCCUCAACCUCCUAUGCAUCCCACCACAUGAUGAUGCCUGAAGAGCCUUGGUUUUUUG,-4.3
7,GACCAAUCUGCCCUCAGAGCUCGAGAACAUCUUCGGAUGCAGAGGACGCAGGCUUCGAUGGCGCGAUAGCGCCAACGUCCUCAACCUCCAAUGCAUCCCACCACAUGAUGAAGCCUUAAGAGCCUUGGUUUUUUG,-3.44
8,GACCAAUCUGCCCUCAGAGCUCGAGAACAUCUUCGGAUGCAGAGGACGCAGGCUUCGGUGGCGCGAUAGCGCCAACGUACUCAACCUCCAAUGCAUCCCACCACAUGAUGAUGCCUGAAGAGCCUUGGUUUUUUG,-5.18
9,GACCAAUCUGCCCUCAGAGCUCGAGAACAUCUUCGGAUGCAGAGGACGCAGGCUUCGGUGGCGCGAUAGCGCCAACGUCCUCAACCUCCAAUGCAUCCCACCACAUGAUGAUGCCUGAAGAGACUUGGUUUUUUG,-0.0743
10,GACCAAUCUGCCCUCAGAGCUCGAGAACAUCUUCGGAUGCAGAGGAAGCAGGCUUCGGUGGCGCGAUAGCGCCAACGCCCUCAACCUCCAAUGCAUCCCACCACAUGAUGAUGCCUGAAGAGCCUUGGUUUUUUG,-1.09
11,GACCAAUCUGCCCUCAGAGCUCGAGAACAUCUUCGGAUGCAGAGGACGCAGGCUUCGGUGGCGUGAUAGCGCCAACGUCCUCAACCUCCCAUGCAUCCCACCAUAUGAUGAUGCCUGAAGAGCCUUGGUUUUUUG,-2.77
12,GACCAAUCUGCCCUCAGAGCUCGAGAACAUCUUCGGAUGCAGAGGAAGCAGGCAUCGGUGGCGCGAUAGCGCCAACGUCCUCAACCUCCGAUGCAUCCCACCACAUGAUGAUGCCUGAAGAGCCUUGGUUGUUUG,-0.834
13,GACCAAUCUGCCCUCAGAGCUCGAGAACAUCUUCGGAUGCAGAGGAAGCAGGCUUCGGUGGCGCGAUACCGCCAACGUCCUCAACAUCCAAUGCAUUCCACCACAUGAUGAUGCUUGAAGAGCGCUGGUUUUUUG,-5.52
14,GACCAAUCUGCCCUCAGAGCUCGAGAACAUCUUCGGAUGCAGAGGACGCAGGCUUCGGUGUCGCGAUAGCGCCAACGUCCUCAACCUCCAAUGCAUCCCACCACAUGAUGAUGCCUGAAGAGCCUUGGUUUUUUG,-2.07
15,GACCAAUCUGCCCUCAGAGCUCGAGAACAUCUUCGGAUGCAGAGGACGCAGGCUUCGGUGGCGCGAUAGCGCCAACGUCCUCAACCUCCAAUGCAUCCCACAACAUGAUGAUGCCUGAAGAGCCUUGGUUUUUUG,-3.89
16,GACCAAUCUGCCCUCAGAGCUCGAGAACAUCUUCGGAUGCAGAGGAAGCAGGCUUCGGUGGCGCGAUAGCGCCAACGUCCUCAACCGCCAAUGCAUCCCACCACAUGAUGAUGCCUGAAGAGCCUUGGUUUUUUG,-0.336
17,GACCAAUCUGCCCUCAGAGCUCGAGAACAUCUUCGGAUGCAGAGGACGCAGGCUUCGGUGGCGCGAUAGCGGCAACGUCCUCAACCUCCAAUGCAUCCCACCACAUGAUGAUACCUGAAGAGCCUAGGUUUUUUG,-5.16
18,GACCAAUCUGCCCUCAGAGCUCGAGAACAUCUUCGGAUGCAGAGGAAGCAGGCUUCGGUGGCGCGAUAGCGCCAACGUCCUCAACCUCCAAUGCAUCCCACCACAUGAUGAUGCCUGAACAGCCUUGGUUUUUUG,0.156
19,GACCAAUCUGCCCUCAGAGCUCGAGAACAUCUUCGGAUGCAGAGGACUCAGGCUUCGGUGGUGCGAUAGCGCCAACGUCCUCAAUCUCCAAUGCAUCCCACCACAUGUUGUUGCCUGAACACCCUUGGUUUUUUG,-6.85
20,GACCAAUCUGCCCUCAGAGCUCGAGAACAUCUUCGGAUGCAGAGGACGCAGCCUUCGGUGGCGCGAUAGCGCCAACGUCCUCAACCUCCAAUGCAUCCCACCACAUGAUGAUGCCUGAAGAGCCUUGGUUUUUUG,-3
21,GACCAAUCUGCCCUCAGAGCUCGAGAACAUCUUCGGAUGCAGAGGACGCAGGCUUCGGUGGCGCGAUAGCGCCAACGUCCUCAACCUCCAAUGCGUCCCACCACAUGAUGAUGCCUGAAGAGCCUUGGUUUUAUG,-2.16

row,Variant,polymerase ribozyme fitness (log ratio)
1,GACCAAUCUGCCCUCAGAGCUCGAGAACAUCUUCGGAUGCAGAGGACGCAGGUUUCGGUGGCGCGAUAGCGCCAACGUCCUCAACCUCCAAUGCAUCCCACCACAUGAUGAUGCCUGAAGAGCAUUGGUUUUUUG,0.271
2,GACCAAUCUGCCCUCAGAGCUCGAGAACAUCUUCGGAUGCAGAGGACGCAGGCUUCGGUGGCGCGAUAGCGCCAACUUCCUCAACCUCCAAUGCAUCCCACCACAUGAUGAUGCCGGAAGAGCCUUGGUUUUUUG,-3.46
3,GACCAAUCUGCCCUCAGAGCUCGAGAACAUCUUCGGAUGCAGAGGACGCAGGCUUCGGUGGCGCGAUAGCGCCAACGUCCUCAACCUCCAAUGCAUCCCACCACAUGGUGAAGCCUGAAGAGCCUUGGUUUUAUG,-5.17
4,GACCAAUCUGCCCUCAGAGCUCGAGAACAUCUUCGGAUGCAGAGGACGCAGGCUUCGGUGGCGCGAUAGCGCCAACGUCCUCAACCUACAAUGCAUCCCACCACAUGAUGAUGCCUGAAGAGCAUUGGUUUUUUG,-0.557
5,GACCAAUCUGCCCUCAGAGCUCGAGAACAUCUUCGGAUGCAGAGGAAGCAGGCUUCGGUGGCGCGAUAGCGCCAACGUCCUCAACCUCCAAUGCAUCCCACCACAUGAUGAUGCCUGAACAGCCUUGGUCUUUUG,0.162
6,GACCAAUCUGCCCUCAGAGCUCGAGAACAUCUUCGGAUGCAGAGGAAGCAGGCUUCGGUGGCGCGAUAGCGCCAACGUCCUCAACCCCCAAUGCAUCCCACCACAUGAUGAAGCCUGAAGAGCCUUGGUUUUUUG,0.24
7,GACCAAUCUGCCCUCAGAGCUCGAGAACAUCUUCGGAUGCAGAGGAAGCAGGCUUCGGUGGCGCGAUAGCGCCAACGGCCACAACUUCCAAUGCAUCCCACCACAUGAUGAUGCCUGAAGAGCCUUGGUUUUGUG,-1.35
8,GACCAAUCUGCCCUCAGAGCUCGAGAACAUCUUCGGAUGCAGAGGAAGCAGGCUUCGGUGGCGCGAUAGCGCCAACGUCCUCAACCUCCAACGCAUCCCACCACAUGAUGAUGCCUGAAGAGCCUUGGUUUUUUG,-2.73
9,GACCAAUCUGCCCUCAGAGCUCGAGAACAUCUUCGGAUGCAGAGGAAGCAGGCUUCGGUGGCGCGAUAUCGCCAACCUCCUCAACCUCCAAUGCAUCCUACCACAUGAUGAUGGCUGAAGAGCCUUGGUUUUUUG,-3.2
10,GACCAAUCUGCCCUCAGAGCUCGAGAACAUCUUCGGAUGCAGAGGACGUAGGCUUCGGUGGUGCGAUAGCGCCAACGUCCUCAACCUCCAAUGCAUCCCACCACAUGAUGAUGCCUGAAGAGCCUUGGUUUUUUG,-2.46
11,GACCAAUCUGCCCUCAGAGCUCGAGAACAUCUUCGGAUGCAGAGGACGCAGGCUUCGGUGGCGCGAUAGUGCCAACGACCUCAACCUCCAAUGCAUCCCACCACAUGAUGAUGCCUGAAGAGCCUUGGUUUUUUG,-1.82
12,GACCAAUCUGCCCUCAGAGCUCGAGAACAUCUUCGGAUGCAGAGGACGCAGGCUUUGGUGGCGCGAUAGCGCCAACGUCCUCAACCUCCAAUGCAUCCCACCACAAGAUGAUGCCUGAAGAGACUUGGUUUUUUG,-1.35
13,GACCAAUCUGCCCUCAGAGCUCGAGAACAUCUUCGGAUGCAGAGGAAGCAGGCCUCGGAGGCGCGAUAGCGCCAACGUCCUCAACCUCCAAUGGAUCCCACCACAUGAUGAUGCCUGCAGAGCCUUGGUCUUUUG,-5.44
14,GACCAAUCUGCCCUCAGAGCUCGAGAACAUCUUCGGAUGCAGAGGAAGCAGGCUUCGGUGGCGCGAUAGCGCCAACGUCCUCAACCUCCAAUUCAUCCCACCACAUGAUGAUGCCUGAAGAGCCUUGGUUUUUUG,-2.71
15,GACCAAUCUGCCCUCAGAGCUCGAGAACAUCUUCGGAUGCAGAGGACGCAGGCUUCGGUGGUGCGAUAGCGCCAACGUCCUCAACCUUCAAUGCAUCCCACCACAUGAUGAUGCCUGAAGAGCCUUGGUUUUUUG,-1.75
16,GACCAAUCUGCCCUCAGAGCUCGAGAACAUCUUCGGAUGCAGAGGACGCAGGCUUCGGUGACGCGAUAACGCCAACGUCCUCAACCUCCAAUGCAUCCCACCACAUGAUGCUGCCAGAAGAGCCUUGGUUUUUUG,-6.11
17,GACCAAUCUGCCCUCAGAGCUCGAGAACAUCUUCGGAUGCAGAGGACGCAGGCUUCGGUGGCGCGAUAGCGCCAACGUCCUUAACCUCCAAUGCAUCCCACCACAUGAUGAUGCCUGAAGAGCCUUGGUUUUUUG,-1.27
18,GACCAAUCUGCCCUCAGAGCUCGAGAACAUCUUCGGAUGCAGAGGAAGCAGGCUACGGUCGCGCGAUAGCGCCAACGUCCUCAACCUCCUAAGCAUCCCACCACAUGAUGAUGCCUGAAGAGCCUUGGUUUUUUG,-4
19,GACCAAUCUGCCCUCAGAGCUCGAGAACAUCUUCGGAUGCAGAGGAAGCAGGCUACGGUUGCGCGAUAGCGCCAACGUCCUCAACCUCCUAAGCAUCCCACCACAUGAUGAUGCCUGAAGAGCCUUGGUUUUUUG,-2.67
20,GACCAAUCUGCCCUCAGAGCUCGAGAACAUCUUCGGAUGCAGAGGACGCAGGCUUCGGUGGCGCGAUAGCGCCAACGUCCUCAACCUCCAAUGCAUCCCAACACAUGAUGAUGCCUGAAGAGCCUUGGUUUUUUG,-2.59
21,GACCAAUCUGCCCUCAGAGCUCGAGAACAUCUUCGGAUGCAGAGGACGCAGGCUUCGGUGACGCGAUAGCGCCAACGUCCUCAACCACCAAAGCAUCCCACCACAUGAUGAUGCCUGAAGAGCCUUGGUUUUUUG,-5.03
